The supplement of paper PMC10567573

B1: TRIM63 (parent)
chain: QRITQEQEKKLSFIEALIQQYQEQ
B2: ZNF449 (parent)
chain: CTHCSKSFRQRAGLIMHQVTHFRG

Variants of: B1
Test: protein stability index of a GFP-peptide fusion (GPS, HEK-293T) (PSI 1-6); higher = more stable
Conditions: c terminus: a fixed tail appended
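Note: lentivirally expressed fusions sorted by FACS into six bins by GFP to DsRed ratio, PSI derived from sequencing read proportions per bin multiplied by bin number.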

Variant	protein stability index
Q22I	1.35
Q22R	2.42
Q22E	1.5
Q22D	1.77
Q22C	2.48
Q22T	2.22
Q22M	1.79
Q22G	2.89
Q22A	2.36
Q22Y	2.62
Q22P	3.12
Q22N	2.79
Q22L	2.1
Q22H	2.52
Q22F	2.02
Q22S	2.41
Q22K	2.03
L17I	2.28
L17V	2.2
L17M	2.93
L17N	4.73
L17H	3.06
L17Q	4.03

Variant	protein stability index
L17K	3.75
L17R	4.34
L17Y	1.92
L17T	3.31
L17S	4.13
L17P	4.63
I18L	2.3
I18E	2.2
I18V	3.12
I18W	2.7
I18A	2.65
I18Q	1.81
I18S	2.94
I18M	2.22
I18Y	3.29
I18D	2.92
I18F	2.74
I18H	3.6
I18T	3.31
I18K	2.42
I18R	3.4
I18P	4.54
I18G	3.67

Variant	protein stability index
I18N	3.57
I18C	2.67
E23Y	1.99
E23I	1.54
E23C	2.37
E23P	1.95
E23W	2.1
E23G	2.57
E23H	2.14
E23V	2.34
E23Q	2.18
E23T	1.94
E23F	2.01
E23D	2.62
E23A	1.96
E23L	2.65
E23K	2.4
E23S	2
E23N	1.9
E23M	1.51
E23R	1.97
Q20I	1.67
Q20S	2.4

Variant	protein stability index
Q20F	2.6
Q20C	2.23
Q20V	1.42
Q20A	2.11
Q20T	2.67
Q20G	3.11
Q20R	2.28
Q20L	2.43
Q20N	2.93
Q20M	2.36
Q20D	2.35
Q20P	3.43
Q20E	1.09
Q20K	5.33
Q20W	2.01
Q19P	3.19
Q19V	1.81
Q19C	2.6
Q19G	2.51
Q19I	2.73
Q19T	2.75
Q19H	2.04
Q19A	1.8

Variant	protein stability index
Q19D	2.46
Q19Y	1.64
Q19E	2.56
Q19F	1.91
Q19R	1.38
Q19K	2.48
Q19N	2.25
Q19W	2.62
Y21C	1.75
Y21M	1.98
Y21L	1.6
Y21T	3.23
Y21A	3.38
Y21G	3.61
Y21P	4.33
Y21K	3.8
Y21V	2.32
Y21W	1.8
Y21N	4.41
Y21I	1.84
Y21S	3.19
Y21R	3.91
Y21F	1.76

Variant	protein stability index
Y21H	2.55
Y21E	2.11
Y21Q	2.75
Q24I	2.52
Q24E	2.14
Q24S	1.98
Q24P	2.68
Q24N	2.25
Q24R	2.06
Q24W	1.46
Q24D	1.82
Q24K	2.06
Q24V	2.24
Q24F	1.97
Q24A	2.41
Q24L	2.16
Q24Y	1.66
Q24C	2.51
Q24M	2.57
Q24T	2.36
Q24H	2.49

Variants of: B2
Test: as above
Conditions: c terminus: a fixed tail appended

Variant	protein stability index
H21G	1.55
H21P	1.49
H21Y	1.4
H21I	2.39
H21R	1.85
H17M	2.44
H17C	2.29
H17K	2.24
H17G	3.28
H17L	1.69
H17W	2.12
R9I	1.94
R9S	3.04
R9K	2.81
R9M	2.9
R9T	2.77
R9L	1.96
R9E	2.15
R9H	1.87
R9N	2.77
R9Q	2.63
R9Y	1.79
R9V	3.17
C4K	1.63
C4W	3.01

Variant	protein stability index
C4Q	1.98
C4V	1.58
C4R	2.11
C4N	2.17
C4L	2.13
C4G	1.8
C4I	2.58
C4S	1.33
L14I	1.3
L14H	2
L14Y	1.5
L14P	1.54
L14F	2.54
L14N	1.49
L14D	2.14
L14C	1.73
L14M	1.97
L14R	2.01
L14G	1.41
V19K	3.79
V19A	2.01
V19S	1.79
V19N	2.82
V19P	1.76
V19Q	2

Variant	protein stability index
V19T	1.88
V19F	2.4
V19R	3.95
V19M	2.12
V19E	3.08
V19C	3.24
T20M	1.56
T20D	2.18
T20E	1.99
T20A	2.04
T20F	2.09
C1H	1.96
C1D	2.01
C1T	1.5
C1L	2.48
C1Y	1.2
C1V	1.64
C1K	2.66
C1W	3.78
R23D	2.49
R23A	2.97
R23N	2.15
R23F	3.33
R23I	3.44
R23E	2.93

Variant	protein stability index
R23Q	2.6
R23M	2.44
F8A	1.91
F8C	2.74
F8Y	3.03
F8S	2.43
F8P	1.81
F8D	1.54
A12H	1.88
A12I	2.36
A12M	2.25
A12D	3.09
A12L	2.11
A12E	3.82
A12Q	3.53
A12C	2.29
A12F	2.25
K6T	2.84
K6Y	2.62
K6A	4.92
K6R	1.91
K6Q	3.32
K6L	2.3
K6M	1.88
G13V	2.58

Variant	protein stability index
G13W	1.87
G13L	1.68
G13C	1.07
G13N	2.69
G13M	2.12
G13A	2.47
G13S	1.52
I15S	3.21
I15G	1.94
I15H	2.2
I15V	3.12
I15Q	2.76
I15D	2.93
S7M	1.57
S7R	1.31
S7E	2.29
S7L	2.69
S7W	1.78
S7D	2.18
S7F	2.49
S5H	2.03
S5N	1.88
S5T	1.49
S5P	2.28
S5A	1.98

Variant	protein stability index
S5M	1.56
S5K	2.52
S5Y	2.75
S5L	1.49
S5G	2.06
T2C	2.09
T2M	1.71
T2I	2.7
T2S	1.98
T2H	1.92
F22S	2.2
F22G	2.61
F22T	1.98
F22N	2.39
F22Q	2.5
F22Y	2.45
F22H	3.29
F22E	1.98
F22K	2.06
F22I	1.92
F22R	3.58
H3R	1.77
H3N	2.18
H3M	2.42
H3Y	2.28

Variant	protein stability index
H3T	2.09
G24K	3.01
G24T	2.69
G24Y	2.41
G24D	3.59
G24F	2.68
G24R	2.29
G24I	2.44
G24W	3.25
R11Q	1.8
R11Y	2.29
R11C	3.42
R11G	2.28
R11K	1.82
R11L	3.44
R11H	1.87
R11E	2.79
R11D	1.58
R11A	2.28
M16K	3.55
M16L	1.98
M16W	1.52
M16I	3.24
M16Q	3.57
M16N	2.86

Variant	protein stability index
M16A	3.98
M16P	1.65
Q18S	2.48
Q18G	1.32
Q18V	1.52
Q18H	1.72
Q18Y	3.18
Q18E	2.09
Q18A	1.51
Q18M	1.69
Q18K	1.69
Q18N	1.53
Q18L	2.11
Q18R	1.73
Q18I	1.96
Q10I	1.67
Q10V	2.19
Q10L	1.59
Q10H	2.13
Q10N	2.15
Q10A	2.51
Q10D	3.41
Q10C	2.43
